Reference: patent US20170190753A1 (LABORATOIRE FRANCAIS DU FRACTIONNEMENT ET DES …, published 2017)

Each binder was assayed against C3 convertase complex (UniProt P01024 23-1663; P00751 260-764) (assay: cell-based or functional assay).
Wherever C3 convertase activity % of the control is given: test concentration or dose not given here.

Sequence of C3 convertase complex (P01024 23-1663, chain 1 of 2): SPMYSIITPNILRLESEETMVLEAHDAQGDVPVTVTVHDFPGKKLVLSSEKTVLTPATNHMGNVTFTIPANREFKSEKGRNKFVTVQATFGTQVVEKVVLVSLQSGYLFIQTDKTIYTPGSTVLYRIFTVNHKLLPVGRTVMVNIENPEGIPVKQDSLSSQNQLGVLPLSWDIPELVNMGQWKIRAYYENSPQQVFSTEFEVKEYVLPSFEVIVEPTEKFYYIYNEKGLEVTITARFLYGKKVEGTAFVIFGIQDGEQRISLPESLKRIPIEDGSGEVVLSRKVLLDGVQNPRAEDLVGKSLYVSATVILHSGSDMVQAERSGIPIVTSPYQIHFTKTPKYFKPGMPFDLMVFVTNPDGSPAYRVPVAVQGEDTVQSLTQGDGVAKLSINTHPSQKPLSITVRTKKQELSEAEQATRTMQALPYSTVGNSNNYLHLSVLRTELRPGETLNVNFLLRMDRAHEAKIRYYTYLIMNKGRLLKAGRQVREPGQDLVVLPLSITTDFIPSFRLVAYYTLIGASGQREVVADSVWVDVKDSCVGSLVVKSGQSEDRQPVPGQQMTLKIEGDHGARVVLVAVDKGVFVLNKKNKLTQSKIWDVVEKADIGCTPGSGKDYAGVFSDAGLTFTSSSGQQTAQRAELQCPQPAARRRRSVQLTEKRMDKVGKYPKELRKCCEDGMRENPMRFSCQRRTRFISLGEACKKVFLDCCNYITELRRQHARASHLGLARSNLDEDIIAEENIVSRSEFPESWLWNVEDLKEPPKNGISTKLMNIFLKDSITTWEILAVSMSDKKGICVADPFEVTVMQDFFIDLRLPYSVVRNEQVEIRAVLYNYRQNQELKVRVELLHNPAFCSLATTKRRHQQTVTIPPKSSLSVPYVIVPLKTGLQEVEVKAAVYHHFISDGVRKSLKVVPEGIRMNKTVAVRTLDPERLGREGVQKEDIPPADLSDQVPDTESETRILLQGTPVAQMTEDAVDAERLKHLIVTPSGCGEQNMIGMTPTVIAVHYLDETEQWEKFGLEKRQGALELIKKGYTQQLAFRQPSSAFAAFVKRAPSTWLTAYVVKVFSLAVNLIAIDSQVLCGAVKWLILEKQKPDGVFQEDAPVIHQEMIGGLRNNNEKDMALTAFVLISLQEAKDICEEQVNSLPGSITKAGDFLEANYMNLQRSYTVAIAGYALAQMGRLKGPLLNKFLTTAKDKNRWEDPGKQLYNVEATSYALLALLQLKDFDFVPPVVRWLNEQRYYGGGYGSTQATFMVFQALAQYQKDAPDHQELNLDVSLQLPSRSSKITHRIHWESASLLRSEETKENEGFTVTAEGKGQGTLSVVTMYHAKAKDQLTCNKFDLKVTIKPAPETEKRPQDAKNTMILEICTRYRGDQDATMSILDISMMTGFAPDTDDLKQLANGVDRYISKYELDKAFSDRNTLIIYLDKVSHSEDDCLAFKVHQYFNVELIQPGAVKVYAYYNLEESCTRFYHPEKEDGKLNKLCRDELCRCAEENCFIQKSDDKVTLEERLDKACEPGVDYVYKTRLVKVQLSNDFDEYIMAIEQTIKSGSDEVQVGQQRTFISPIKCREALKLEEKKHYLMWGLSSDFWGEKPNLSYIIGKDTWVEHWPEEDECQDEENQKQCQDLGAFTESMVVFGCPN
Sequence of C3 convertase complex (P00751 260-764, chain 2 of 2): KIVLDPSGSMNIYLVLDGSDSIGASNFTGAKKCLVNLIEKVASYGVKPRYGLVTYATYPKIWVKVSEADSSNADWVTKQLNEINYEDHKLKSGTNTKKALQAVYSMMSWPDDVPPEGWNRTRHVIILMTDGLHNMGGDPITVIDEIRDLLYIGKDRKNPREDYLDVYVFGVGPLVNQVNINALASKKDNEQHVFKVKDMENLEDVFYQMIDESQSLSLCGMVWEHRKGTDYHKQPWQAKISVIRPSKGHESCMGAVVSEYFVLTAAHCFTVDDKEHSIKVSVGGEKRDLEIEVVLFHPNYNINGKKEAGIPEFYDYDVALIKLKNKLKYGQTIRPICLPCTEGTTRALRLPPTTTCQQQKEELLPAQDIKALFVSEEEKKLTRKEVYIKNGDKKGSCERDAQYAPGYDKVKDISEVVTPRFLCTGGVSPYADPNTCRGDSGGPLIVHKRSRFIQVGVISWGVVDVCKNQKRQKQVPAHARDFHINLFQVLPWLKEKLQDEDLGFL

C3 convertase activity % of the control | C3 convertase activity IC50 [µg/mL] | Binder
10 % of the control | 0.74 | pCEP4-1NT11-15CT20 (other) EDCNELPPRRNTEILTGSWSDQTYPEGTQAIYKCRPGYRSLGNVIMVCRKGEWVALNPLRKCQKRPCGHPGDTPFGTFTLTGGNVFEYGVKAVYTCNEGYQLLGEINYRECDTDGWTNDIPICEVVKCLPVTAPENGKIVSSAMEPDREYHFGQAVRFVCNSGYKIEGDEEMHCSDDGFWSKEKPKCVEISCKSPDVINGSPISQKIIYKENERFQYKCNMGYEYSERGDAVCTESGWRPLPSCEEKSCDNPYIPNGDYSPLRIKHRTGDEITYQCRNGFYPATRGNTAKCTSTGWIPAPRCTLKPCDYPDIKHGGLYHENMRRPYFPVAVGKYYSYYCDEHFETPSGSYWDHIHCTQDGWSPAVPCLRKCYFPYLENGYNQNHGRKFVQGKSIDVACHPGYALPKAQTTVTCMENGWSPTPRCIRVKTCSKSSIDIENGFISESQYTYALKEKAKYQCKLGYVTADGETSGSITCGKDGWSAQPTCIKSCDIPVFMNARTKNDFTWFKLNDTLDYECHDGYESNTGSTTGSIVCGYNGWSDLPICYERECELPKIDVHLVPDRKKDQYKVGEVLKFSCKPGFTIVGPNSVQCYHFGLSPDLPICKEQVQSCGPPPELLNGNVKEKTKEEYGHSEVVEYYCNPRFLMKGPNKIQCVDGEWTTLPVCIVEESTGASGCSQPPQIEHGTINSSRSSQESYAHGTKLSYTCEGGFRISEENETTCYMGKWSSPPQCEGLPCKSPPEISHGVVAHMSDSYQYGEEVTYKCFEGFGIDGPAIAKCLGEKWSHPPSCIKTDCLSLPSFENAIPMGEKKDVYKAGEQVTYTCATYYKMDGASNVTCINSRWTGRPTCRDTSCVNPPTVQNAYIVSRQMSKYPSGERVRYQCRSPYEMFGDEEVMCLNGNWTEPPQCKDSTGKCGPPPPIDNGDITSFPLSVYAPASSVEYQCQNLYQLEGNKRITCRNGQWSEPPKCLHPCVISREIMENYNIALRWTAKQKLYSRTGESVEFVCKRGYRLSSRSHTLRTTCWDGKLEYPTCAKRGGSGHHHHHH
8 % of the control | 1.21 | pCEP4-1NT11-16CT20 (other) EDCNELPPRRNTEILTGSWSDQTYPEGTQAIYKCRPGYRSLGNVIMVCRKGEWVALNPLRKCQKRPCGHPGDTPFGTFTLTGGNVFEYGVKAVYTCNEGYQLLGEINYRECDTDGWTNDIPICEVVKCLPVTAPENGKIVSSAMEPDREYHFGQAVRFVCNSGYKIEGDEEMHCSDDGFWSKEKPKCVEISCKSPDVINGSPISQKIIYKENERFQYKCNMGYEYSERGDAVCTESGWRPLPSCEEKSCDNPYIPNGDYSPLRIKHRTGDEITYQCRNGFYPATRGNTAKCTSTGWIPAPRCTLKPCDYPDIKHGGLYHENMRRPYFPVAVGKYYSYYCDEHFETPSGSYWDHIHCTQDGWSPAVPCLRKCYFPYLENGYNQNHGRKFVQGKSIDVACHPGYALPKAQTTVTCMENGWSPTPRCIRVKTCSKSSIDIENGFISESQYTYALKEKAKYQCKLGYVTADGETSGSITCGKDGWSAQPTCIKSCDIPVFMNARTKNDFTWFKLNDTLDYECHDGYESNTGSTTGSIVCGYNGWSDLPICYERECELPKIDVHLVPDRKKDQYKVGEVLKFSCKPGFTIVGPNSVQCYHFGLSPDLPICKEQVQSCGPPPELLNGNVKEKTKEEYGHSEVVEYYCNPRFLMKGPNKIQCVDGEWTTLPVCIVEESTGASGCKSPPEISHGVVAHMSDSYQYGEEVTYKCFEGFGIDGPAIAKCLGEKWSHPPSCIKTDCLSLPSFENAIPMGEKKDVYKAGEQVTYTCATYYKMDGASNVTCINSRWTGRPTCRDTSCVNPPTVQNAYIVSRQMSKYPSGERVRYQCRSPYEMFGDEEVMCLNGNWTEPPQCKDSTGKCGPPPPIDNGDITSFPLSVYAPASSVEYQCQNLYQLEGNKRITCRNGQWSEPPKCLHPCVISREIMENYNIALRWTAKQKLYSRTGESVEFVCKRGYRLSSRSHTLRTTCWDGKLEYPTCAKRGGSGHHHHHH

The next lines start with the binder.

Binder | C3 convertase activity % of the control | C3 convertase activity IC50 [µg/mL]
pCEP4-1NT4-14CT20 (other) EDCNELPPRRNTEILTGSWSDQTYPEGTQAIYKCRPGYRSLGNVIMVCRKGEWVALNPLRKCQKRPCGHPGDTPFGTFTLTGGNVFEYGVKAVYTCNEGYQLLGEINYRECDTDGWTNDIPICEVVKCLPVTAPENGKIVSSAMEPDREYHFGQAVRFVCNSGYKIEGDEEMHCSDDGFWSKEKPKCVEISCKSPDVINGSPISQKIIYKENERFQYKCNMGYEYSERGDAVCTESGWRPLPSCEEKSGASGCPPPPQIPNSHNMTTTLNYRDGEKVSVLCQENYLIQEGEEITCKDGRWQSIPLCVEKIPCSQPPQIEHGTINSSRSSQESYAHGTKLSYTCEGGFRISEENETTCYMGKWSSPPQCEGLPCKSPPEISHGVVAHMSDSYQYGEEVTYKCFEGFGIDGPAIAKCLGEKWSHPPSCIKTDCLSLPSFENAIPMGEKKDVYKAGEQVTYTCATYYKMDGASNVTCINSRWTGRPTCRDTSCVNPPTVQNAYIVSRQMSKYPSGERVRYQCRSPYEMFGDEEVMCLNGNWTEPPQCKDSTGKCGPPPPIDNGDITSFPLSVYAPASSVEYQCQNLYQLEGNKRITCRNGQWSEPPKCLHPCVISREIMENYNIALRWTAKQKLYSRTGESVEFVCKRGYRLSSRSHTLRTTCWDGKLEYPTCAKRGGSGHHHHHH | 15 % of the control | 0.618
pCEP4-1NT7-16CT20 (other) EDCNELPPRRNTEILTGSWSDQTYPEGTQAIYKCRPGYRSLGNVIMVCRKGEWVALNPLRKCQKRPCGHPGDTPFGTFTLTGGNVFEYGVKAVYTCNEGYQLLGEINYRECDTDGWTNDIPICEVVKCLPVTAPENGKIVSSAMEPDREYHFGQAVRFVCNSGYKIEGDEEMHCSDDGFWSKEKPKCVEISCKSPDVINGSPISQKIIYKENERFQYKCNMGYEYSERGDAVCTESGWRPLPSCEEKSCDNPYIPNGDYSPLRIKHRTGDEITYQCRNGFYPATRGNTAKCTSTGWIPAPRCTLKPCDYPDIKHGGLYHENMRRPYFPVAVGKYYSYYCDEHFETPSGSYWDHIHCTQDGWSPAVPCLRKCYFPYLENGYNQNYGRKFVQGKSIDVACHPGYALPKAQTTVTCMENGWSPTPRCIRVKTGASGCKSPPEISHGVVAHMSDSYQYGEEVTYKCFEGFGIDGPAIAKCLGEKWSHPPSCIKTDCLSLPSFENAIPMGEKKDVYKAGEQVTYTCATYYKMDGASNVTCINSRWTGRPTCRDTSCVNPPTVQNAYIVSRQMSKYPSGERVRYQCRSPYEMFGDEEVMCLNGNWTEPPQCKDSTGKCGPPPPIDNGDITSFPLSVYAPASSVEYQCQNLYQLEGNKRITCRNGQWSEPPKCLHPCVISREIMENYNIALRWTAKQKLYSRTGESVEFVCKRGYRLSSRSHTLRTTCWDGKLEYPTCAKRGGSGHHHHHH | 15 % of the control | 0.442
pCEP4-1NT7-19CT20 (other) EDCNELPPRRNTEILTGSWSDQTYPEGTQAIYKCRPGYRSLGNVIMVCRKGEWVALNPLRKCQKRPCGHPGDTPFGTFTLTGGNVFEYGVKAVYTCNEGYQLLGEINYRECDTDGWTNDIPICEVVKCLPVTAPENGKIVSSAMEPDREYHFGQAVRFVCNSGYKIEGDEEMHCSDDGFWSKEKPKCVEISCKSPDVINGSPISQKIIYKENERFQYKCNMGYEYSERGDAVCTESGWRPLPSCEEKSCDNPYIPNGDYSPLRIKHRTGDEITYQCRNGFYPATRGNTAKCTSTGWIPAPRCTLKPCDYPDIKHGGLYHENMRRPYFPVAVGKYYSYYCDEHFETPSGSYWDHIHCTQDGWSPAVPCLRKCYFPYLENGYNQNYGRKFVQGKSIDVACHPGYALPKAQTTVTCMENGWSPTPRCIRVKTGASGCGPPPPIDNGDITSFPLSVYAPASSVEYQCQNLYQLEGNKRITCRNGQWSEPPKCLHPCVISREIMENYNIALRWTAKQKLYSRTGESVEFVCKRGYRLSSRSHTLRTTCWDGKLEYPTCAKRGGSGHHHHHH | 12 % of the control | 1.09
pCEP4-1NT10-14CT20 (other) EDCNELPPRRNTEILTGSWSDQTYPEGTQAIYKCRPGYRSLGNVIMVCRKGEWVALNPLRKCQKRPCGHPGDTPFGTFTLTGGNVFEYGVKAVYTCNEGYQLLGEINYRECDTDGWTNDIPICEVVKCLPVTAPENGKIVSSAMEPDREYHFGQAVRFVCNSGYKIEGDEEMHCSDDGFWSKEKPKCVEISCKSPDVINGSPISQKIIYKENERFQYKCNMGYEYSERGDAVCTESGWRPLPSCEEKSCDNPYIPNGDYSPLRIKHRTGDEITYQCRNGFYPATRGNTAKCTSTGWIPAPRCTLKPCDYPDIKHGGLYHENMRRPYFPVAVGKYYSYYCDEHFETPSGSYWDHIHCTQDGWSPAVPCLRKCYFPYLENGYNQNHGRKFVQGKSIDVACHPGYALPKAQTTVTCMENGWSPTPRCIRVKTCSKSSIDIENGFISESQYTYALKEKAKYQCKLGYVTADGETSGSITCGKDGWSAQPTCIKSCDIPVFMNARTKNDFTWFKLNDTLDYECHDGYESNTGSTTGSIVCGYNGWSDLPICYERECELPKIDVHLVPDRKKDQYKVGEVLKFSCKPGFTIVGPNSVQCYHFGLSPDLPICKEQVQSGASGCPPPPQIPNSHNMTTTLNYRDGEKVSVLCQENYLIQEGEEITCKDGRWQSIPLCVEKIPCSQPPQIEHGTINSSRSSQESYAHGTKLSYTCEGGFRISEENETTCYMGKWSSPPQCEGLPCKSPPEISHGVVAHMSDSYQYGEEVTYKCFEGFGIDGPAIAKCLGEKWSHPPSCIKTDCLSLPSFENAIPMGEKKDVYKAGEQVTYTCATYYKMDGASNVTCINSRWTGRPTCRDTSCVNPPTVQNAYIVSRQMSKYPSGERVRYQCRSPYEMFGDEEVMCLNGNWTEPPQCKDSTGKCGPPPPIDNGDITSFPLSVYAPASSVEYQCQNLYQLEGNKRITCRNGQWSEPPKCLHPCVISREIMENYNIALRWTAKQKLYSRTGESVEFVCKRGYRLSSRSHTLRTTCWDGKLEYPTCAKRGGSGHHHHHH | 14 % of the control | 0.671
pCEP4-1NT4-11CT20 (other) EDCNELPPRRNTEILTGSWSDQTYPEGTQAIYKCRPGYRSLGNVIMVCRKGEWVALNPLRKCQKRPCGHPGDTPFGTFTLTGGNVFEYGVKAVYTCNEGYQLLGEINYRECDTDGWTNDIPICEVVKCLPVTAPENGKIVSSAMEPDREYHFGQAVRFVCNSGYKIEGDEEMHCSDDGFWSKEKPKCVEISCKSPDVINGSPISQKIIYKENERFQYKCNMGYEYSERGDAVCTESGWRPLPSCEEKSGASGCGPPPELLNGNVKEKTKEEYGHSEVVEYYCNPRFLMKGPNKIQCVDGEWTTLPVCIVEESTCGDIPELEHGWAQLSSPPYYYGDSVEFNCSESFTMIGHRSITCIHGVWTQLPQCVAIDKLKKCKSSNLIILEEHLKNKKEFDHNSNIRYRCRGKEGWIHTVCINGRWDPEVNCSMAQIQLCPPPPQIPNSHNMTTTLNYRDGEKVSVLCQENYLIQEGEEITCKDGRWQSIPLCVEKIPCSQPPQIEHGTINSSRSSQESYAHGTKLSYTCEGGFRISEENETTCYMGKWSSPPQCEGLPCKSPPEISHGVVAHMSDSYQYGEEVTYKCFEGFGIDGPAIAKCLGEKWSHPPSCIKTDCLSLPSFENAIPMGEKKDVYKAGEQVTYTCATYYKMDGASNVTCINSRWTGRPTCRDTSCVNPPTVQNAYIVSRQMSKYPSGERVRYQCRSPYEMFGDEEVMCLNGNWTEPPQCKDSTGKCGPPPPIDNGDITSFPLSVYAPASSVEYQCQNLYQLEGNKRITCRNGQWSEPPKCLHPCVISREIMENYNIALRWTAKQKLYSRTGESVEFVCKRGYRLSSRSHTLRTTCWDGKLEYPTCAKRGGSGHHHHHH | 17 % of the control | 0.546
